From article PMC8766921 (Molecular biotechnology, 2021)

Molecular target: the molecule itself
Experiment: SDS-PAGE under reducing and non-reducing conditions

B1: BMP-4 growth factor (GF) from the B2/4 construct (BMP-2 pro-domain and BMP-4 GF sequence) (ligand, human, UniProt P12644 293-408, looked up)
chain: SPKHHSQRARKKNKNCRRHSLYVDFSDVGWNDWIVAPPGYQAFYCHGDCPFPLADHLNSTNHAIVQTLVNSVNSSIPKACCVPTELSAISMLYLDEYDKVVLKNYQEMVVEGCGCR
modifications: two N-linked glycans
stoichiometry N: 2
